According to publication PMC8439657:

Columns and labels:
[1] = molecular target: mTORC1 (wild-type human mTOR, RAPTOR, mLST8), Strep tag removed (human) (UniProt P42345)
[2] = molecular target: mTOR^ΔN-mLST8 complex (human) (UniProt P42345)
[3] = molecular target: mTORC1 (wild-type human mTOR, RAPTOR, mLST8), Strep tag removed (human) (UniProt P42345); remark: listed apart in the source
[4] = molecular target: mTORC1 (wild-type human mTOR, RAPTOR, mLST8), Strep tag removed (human) (UniProt P42345); remark: listed apart in the source
[5] = molecular target: Twin-Strep-tagged wild-type mTORC1 (human) (UniProt P42345); test: SPR; Biacore T200, CM5 chip; Twin-Strep-tagged mTORC1 captured on Strep-Tactin XT; DEPTOR PDZ (305-409) injected 120 s, 300 s dissociation, 1:2 dilution series from 20 µM; 50 mM HEPES pH 7.5, 100 mM NaCl, 1 mM TCEP; equilibrium responses fit to one-site specific binding with a linear non-specific component
[6] = molecular target: Twin-Strep-tagged activated mTORC1 mutant A1459P (human) (UniProt P42345); test: as above

An IC50 of inhibition of mTORC1 kinase activity, phosphorylation of GST-S6K1 367-404 peptide (western blot, p-S6K1 Thr389) [1] of 51 µM, an IC50 of inhibition of mTORC1 kinase activity, phosphorylation of wild-type 4EBP1 (western blot, p-4EBP1 Thr37/46) [1] of 14 µM and an IC50 of inhibition of the kinase activity of monomeric mTOR^ΔN-mLST8 [2] of 0.4 µM were found for “DEPTOR (DEP-domain containing mTOR-interacting protein), full length, residues 1-409 (from UniProt Q8TB45 1-409) (natural protein)” in this work. It also gave an IC50 of inhibition of mTORC1 phosphorylation of the TOS-less 4EBP1 mutant, against wild-type 4EBP1 [3] of 2 fold and a fold decrease of the IC50 of DEPTOR inhibition of 4EBP1 phosphorylation in the presence of RHEB-GTP, against mTORC1 alone [4] of 400 fold.

A Kd [5] of 7 µM and a Kd [6] of 0.6 µM were found for “DEPTOR short-linker PDZ, residues 305-409 (from UniProt Q8TB45 305-409) (domain or fragment)” in this work.
